Reference: article PMC7335206

How the values were obtained:
[1] = molecular target: N-terminal transactivation domain (TAD) of the tumor suppressor protein p53, labeled with Alexa 488 and Alexa 594, biotinylated; assay: FRET or BRET; single-molecule three-color FRET, CW donor excitation; biotinylated TAD immobilized on PEG-coated glass via NeutrAvidin, 100 nM NCBD in solution; 10 mM Tris pH 7, 10 mM NaCl, 23 °C; maximum likelihood analysis of photon trajectories, 8-state model with acceptor blinking
[2] = molecular target: N-terminal transactivation domain (TAD) of the tumor suppressor protein p53, labeled with Alexa 488 and Alexa 594, biotinylated; assay: FRET or BRET; single-molecule three-color FRET, CW donor excitation; biotinylated TAD immobilized on PEG-coated glass via NeutrAvidin, 25 nM NCBD in solution; 10 mM Tris pH 7, 0 mM NaCl, 23 °C; maximum likelihood analysis of photon trajectories, 8-state model with acceptor blinking
[3] = molecular target: N-terminal transactivation domain (TAD) of the tumor suppressor protein p53, labeled with Alexa 488 and Alexa 594, biotinylated; assay: FRET or BRET; single-molecule three-color FRET, CW donor excitation; biotinylated TAD immobilized on PEG-coated glass via NeutrAvidin, 200 nM NCBD in solution; 10 mM Tris pH 7, 30 mM NaCl, 23 °C; maximum likelihood analysis of photon trajectories, 8-state model with acceptor blinking

Kd [1]: 520 nM
kon [1]: 9.1e+08 M⁻¹ s⁻¹
Kd [2]: 123 nM
kon [2]: 2.04e+09 M⁻¹ s⁻¹
Kd [3]: 2480 nM
kon [3]: 5.2e+08 M⁻¹ s⁻¹
Substance: nuclear coactivator binding domain (NCBD) of the CREB binding protein (CBP), S2066C, labeled with CF680R (domain or fragment)
